IntAct's records for PubMed 22863780

Biological target: rcan1_mouse Rcan1 (UniProt Q9JHG6)

Substance: Fragile X messenger ribonucleoprotein 1 (Mus musculus) (from UniProt P35922) S499A
- effect of a mutation on the interaction: disrupting interaction
